Data on one substance can be found in article PMC7645262.

For the assay, the target named is Bpa78-βarr1 with a 2xStrep tag at the C-terminus (bovine) (UniProt P17870). In words: cross-linking; Bpa78-βarr1-2xStrep in HEK293T cells irradiated with UV (365 nm) as intact cells, then isolated with Strep-Tactin XT (1 M NaCl, 1 M urea in the supernatant); product analysed by SDS-PAGE/blot, SEC (Superdex 200 Increase, 4°C, Buffer W), MALDI-TOF-MS and nano-HPLC/nano-ESI-Orbitrap-MS/MS.

In general, stoichiometry N refers to the number of molecules, sites or subunits per partner or assembly. Take “Bpa78-βarr1 with a 2xStrep tag at the C-terminus (from UniProt P17870 1-418) (natural protein)”: the stoichiometry N stood at 2.
